Reference: the supplement of paper PMC9233669
This sample holds only a part of the variants without activity.

How the values were obtained:
biotinyl-Phe-oxazolone = assay: self-aminoacylation, catalytic enhancement (BFO) (fold over background); higher = more active; k-Seq, kA / k0A0; sequences stand for … in GGGAAUGGAUCCACAUCUACGAAUUC…UUCACUGCAGACUUGACGAAGCUG
Procedure, shortened: (§1)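 Catalytic enhancement equals the median kA over the uncatalyzed rate, the latter read from the low-activity peak of a bimodal Gaussian fit. Values of kA came from fitting each sequence's fraction reacted to a pseudo-first-order model, with 1000 bootstraps. Reacted RNA was captured with streptavidin and quantified by triplicate qPCR and Illumina sequencing after 90 minutes at room temperature with 2–1250 μM biotinyl-aminoacyl-oxazolone and 0.43 μM mutagenized RNA pools bearing a 21-nt variable region.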

biotinyl-Ile-oxazolone = assay: self-aminoacylation, catalytic enhancement (BIO) (fold over background); higher = more active; k-Seq, kA / k0A0; sequences stand for … in GGGAAUGGAUCCACAUCUACGAAUUC…UUCACUGCAGACUUGACGAAGCUG
Procedure, shortened: as §1

biotinyl-Met-oxazolone = assay: self-aminoacylation, catalytic enhancement (BMO) (fold over background); higher = more active; k-Seq, kA / k0A0; sequences stand for … in GGGAAUGGAUCCACAUCUACGAAUUC…UUCACUGCAGACUUGACGAAGCUG
Procedure, shortened: as §1

biotinyl-Val-oxazolone = assay: self-aminoacylation, catalytic enhancement (BVO) (fold over background); higher = more active; k-Seq, kA / k0A0; sequences stand for … in GGGAAUGGAUCCACAUCUACGAAUUC…UUCACUGCAGACUUGACGAAGCUG
Procedure, shortened: as §1

biotinyl-Leu-oxazolone = assay: self-aminoacylation, catalytic enhancement (BLO) (fold over background); higher = more active; k-Seq, kA / k0A0; sequences stand for … in GGGAAUGGAUCCACAUCUACGAAUUC…UUCACUGCAGACUUGACGAAGCUG
Procedure, shortened: as §1

biotinyl-Trp-oxazolone = assay: self-aminoacylation, catalytic enhancement (BWO) (fold over background); higher = more active; k-Seq, kA / k0A0; sequences stand for … in GGGAAUGGAUCCACAUCUACGAAUUC…UUCACUGCAGACUUGACGAAGCUG
Procedure, shortened: as §1

Sequence	self-aminoacylation (biotinyl-Phe-oxazolone)	self-aminoacylation (biotinyl-Ile-oxazolone)	self-aminoacylation (biotinyl-Met-oxazolone)	self-aminoacylation (biotinyl-Val-oxazolone)	self-aminoacylation (biotinyl-Leu-oxazolone)	self-aminoacylation (biotinyl-Trp-oxazolone)
AAGUUUGCUAAUAGACGGAAG [Fam3.1 aminoacylation ribozyme variant]	0.91	0.637	0.544	0.584	0.406	0.764
AAGUUUGCUAAUAGCCGCGAG [Fam3.1 aminoacylation ribozyme variant]	1.6	1.05	0.916	1.63	2.04	1.01
AAGUUUGCUAAUAGCCGUAAG [Fam3.1 aminoacylation ribozyme variant]	18.2	1.3	1.39	1.36	0.898	7.16
AAGUUUGCUAAUAGGCCCAAG [Fam3.1 aminoacylation ribozyme variant]	0.737	1.32	0.899	1.23	0.847	1.2
AAGUUUGCUAAUAGGCGCUAG [Fam3.1 aminoacylation ribozyme variant]	0.86	0.648	0.723	0.722	0.647	0.561
AAGUUUGCUAAUAGGGGCAAG [Fam3.1 aminoacylation ribozyme variant]	1.08	0.686	0.663	0.649	0.505	0.665
AAGUUUGCUAAUAGGUGCAAG [Fam3.1 aminoacylation ribozyme variant]	0.732	0.728	0.706	0.836	0.609	0.526
AAGUUUGCUAAUAGUAGCACG [Fam3.1 aminoacylation ribozyme variant]	1.39	0.814	0.733	0.764	0.619	0.766
AAGUUUGCUAAUAGUCACGAG [Fam3.1 aminoacylation ribozyme variant]	1.54	1.26	1.33	1.22	0.881	1.34
AAGUUUGCUAAUAGUCACUAG [Fam3.1 aminoacylation ribozyme variant]	1.1	1.08	0.981	0.939	0.836	1.13
AAGUUUGCUAAUAGUCCCGAG [Fam3.1 aminoacylation ribozyme variant]	1.54	1.22	1.28	1.27	1.31	2.65
AAGUUUGCUAAUAGUCGAAUG [Fam3.1 aminoacylation ribozyme variant]	1.48	1.09	1.17	0.903	0.88	1.17
AAGUUUGCUAAUAGUCGCAGC [Fam3.1 aminoacylation ribozyme variant]	1.11	1.17	0.956	0.913	0.821	1.99
AAGUUUGCUAAUAGUCGCCAG [Fam3.1 aminoacylation ribozyme variant]	1.41	1.02	1.03	0.997	0.962	1.39
AAGUUUGCUAAUAGUCGCCCG [Fam3.1 aminoacylation ribozyme variant]	9.34	3.76	2.98	2.69	3.87	3.76
AAGUUUGCUAAUAGUCGCCGG [Fam3.1 aminoacylation ribozyme variant]	10.5	3.08	5.01	4.14	3.53	5.77
AAGUUUGCUAAUAGUCGCUAC [Fam3.1 aminoacylation ribozyme variant]	0.82	0.54	0.57	0.697	0.476	0.666
AAGUUUGCUAAUAGUCGGAAG [Fam3.1 aminoacylation ribozyme variant]	14.8	1.13	1.16	1.03	0.934	4.58
AAGUUUGCUAAUAGUCGUAAA [Fam3.1 aminoacylation ribozyme variant]	2.23	0.909	0.973	1.04	0.826	1.01
AAGUUUGCUAAUAGUCGUAAC [Fam3.1 aminoacylation ribozyme variant]	1.02	0.726	0.658	0.822	0.68	0.778
AAGUUUGCUAAUAGUCGUCAG [Fam3.1 aminoacylation ribozyme variant]	2.16	0.795	0.638	0.905	0.715	1.26
AAGUUUGCUAAUAGUCGUGAG [Fam3.1 aminoacylation ribozyme variant]	2.86	1.19	1.31	1.04	1.13	2.15
